Measurements published in patent US20050100554A1 (published 2005).

B1: Human Papillomavirus 1a E1 (other)
chain: MADNKGTENDWFLVEATDCEETLEETSLGDLDNVSCVSDLSDLLDEAPQSQGNSLELFHKQESLESEQELNALKRKLLYSPQARSADETDIASISPRLETISITKQDKKRYRRQLFSQDDSGLELSLLQDETENIDESTQVDQQQKEHTGEVGAAGVNILKASNIRAALLSRFKDTAGVSFTDLTRSYKSNKTCCGDWVLAVWGVRENLIDSVKELLQTHCVYIQLEHAVTEKNRFLFLLVRFKAQKSRETVIKLITTILPVDASYILSEPPKSRSVAAALFWYKRSMSSTVFTWGTTLEWIAQQTLINHQLDSESPFELCKMVQWAYDNGHTEECKIAYYYAVLADEDENARAFLSSNSQAKYVKDCAQMVRHYLRAEMAQMSMSEWIFRKLDNVEGSGNWKEIVRFLRFQEVEFISFMIAFKDLLCGKPKKNCLLIFGPPNTGKSMFCTSLLKLLGGKVISYCNSKSQFWLQPLADAKIGLLDDATKPCWDYMDIYMRNALDGNTICIDLKHRAPQQIKCPPLLITSNIDVKSDTCWMYLHSRISAFKFAHEFPFKDNGDPGFSLTDENWKSFFERFWQQLELSDQEDEGNDGKPQQSLRLTARAANEPI
notes: also called HPV 1a E1; cbe_552975

Key:
NDUFAB1 = biological target: T1, NDUFAB1 (human, UniProt O14561 69-156); test: Y2H; INT ID 587
T1 construct: also called cbe_4269931

TLK2 = biological target: T2, TLK2 (human, UniProt Q86UE8 1-772, limits assumed); test: Y2H; INT ID 584
T2 construct: Y2H Gal4 fusion; also called cbe_4269167

[1] = biological target: B1; test: Y2H; INT ID 582
[2] = biological target: B1; test: Y2H; INT ID 583
[3] = biological target: T3, tissue factor pathway inhibitor (lipoprotein-associated coagulation inhibitor) (human, UniProt P10646 29-304); test: Y2H; INT ID 309
T3 construct: also called TFPI; cbe_3834015
T3 sequence: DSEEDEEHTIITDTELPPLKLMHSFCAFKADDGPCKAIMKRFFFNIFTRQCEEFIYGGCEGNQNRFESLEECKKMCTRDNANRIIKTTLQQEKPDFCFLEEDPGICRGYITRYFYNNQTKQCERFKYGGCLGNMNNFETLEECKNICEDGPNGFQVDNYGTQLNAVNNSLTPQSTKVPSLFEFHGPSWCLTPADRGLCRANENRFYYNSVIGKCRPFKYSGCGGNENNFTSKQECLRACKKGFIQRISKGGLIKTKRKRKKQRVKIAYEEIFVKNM

RBP4 = biological target: T4, RBP4 (human, UniProt P02753 19-201); test: Y2H; INT ID 433
T4 construct: also called cbe_4265947

[4] = biological target: T5, adaptor-related protein complex 2, mu 1 subunit (human, UniProt Q96CW1 1-435); test: Y2H; INT ID 430
T5 construct: also called AP2M1; cbe_3789063

[5] = biological target: T6, Homo sapiens QUAKING isoform 5 (QUAKING) (human, UniProt Q96PU8 5-341); test: Y2H; INT ID 431
T6 construct: also called cbe_3810032
T6 sequence: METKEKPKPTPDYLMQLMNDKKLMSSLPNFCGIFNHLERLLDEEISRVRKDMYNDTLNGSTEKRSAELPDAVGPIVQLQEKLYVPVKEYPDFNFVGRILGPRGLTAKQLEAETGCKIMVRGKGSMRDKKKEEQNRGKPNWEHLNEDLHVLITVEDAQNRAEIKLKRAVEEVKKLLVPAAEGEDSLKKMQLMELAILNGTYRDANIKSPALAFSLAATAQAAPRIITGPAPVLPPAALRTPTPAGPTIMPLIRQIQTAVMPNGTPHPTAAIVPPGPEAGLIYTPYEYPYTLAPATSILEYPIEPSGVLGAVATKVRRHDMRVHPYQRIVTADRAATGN

[6] = biological target: T7, phosphoglycerate mutase 1 (brain) (human, UniProt P18669 2-254); test: Y2H; INT ID 432
T7 construct: also called PGAM1; cbe_3820530
T7 sequence: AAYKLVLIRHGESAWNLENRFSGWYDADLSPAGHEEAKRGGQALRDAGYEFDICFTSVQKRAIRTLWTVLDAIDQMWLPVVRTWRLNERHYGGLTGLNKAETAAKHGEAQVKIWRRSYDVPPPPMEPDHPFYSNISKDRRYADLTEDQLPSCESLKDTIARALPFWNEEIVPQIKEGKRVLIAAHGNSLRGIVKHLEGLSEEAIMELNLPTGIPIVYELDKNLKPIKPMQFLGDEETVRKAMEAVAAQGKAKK

[7] = biological target: B1; test: Y2H; INT ID 579
[8] = biological target: B1; test: Y2H; INT ID 581
[9] = biological target: T8, exportin 1 (CRM1 homolog, yeast) (human, UniProt O14980 1-1071); test: Y2H; INT ID 424
T8 construct: also called XPO1; cbe_3621798

hexokinase 1 = biological target: T9, hexokinase 1 (human, UniProt P19367 22-917); test: Y2H; INT ID 425
T9 construct: also called HK1; cbe_3665307
T9 sequence: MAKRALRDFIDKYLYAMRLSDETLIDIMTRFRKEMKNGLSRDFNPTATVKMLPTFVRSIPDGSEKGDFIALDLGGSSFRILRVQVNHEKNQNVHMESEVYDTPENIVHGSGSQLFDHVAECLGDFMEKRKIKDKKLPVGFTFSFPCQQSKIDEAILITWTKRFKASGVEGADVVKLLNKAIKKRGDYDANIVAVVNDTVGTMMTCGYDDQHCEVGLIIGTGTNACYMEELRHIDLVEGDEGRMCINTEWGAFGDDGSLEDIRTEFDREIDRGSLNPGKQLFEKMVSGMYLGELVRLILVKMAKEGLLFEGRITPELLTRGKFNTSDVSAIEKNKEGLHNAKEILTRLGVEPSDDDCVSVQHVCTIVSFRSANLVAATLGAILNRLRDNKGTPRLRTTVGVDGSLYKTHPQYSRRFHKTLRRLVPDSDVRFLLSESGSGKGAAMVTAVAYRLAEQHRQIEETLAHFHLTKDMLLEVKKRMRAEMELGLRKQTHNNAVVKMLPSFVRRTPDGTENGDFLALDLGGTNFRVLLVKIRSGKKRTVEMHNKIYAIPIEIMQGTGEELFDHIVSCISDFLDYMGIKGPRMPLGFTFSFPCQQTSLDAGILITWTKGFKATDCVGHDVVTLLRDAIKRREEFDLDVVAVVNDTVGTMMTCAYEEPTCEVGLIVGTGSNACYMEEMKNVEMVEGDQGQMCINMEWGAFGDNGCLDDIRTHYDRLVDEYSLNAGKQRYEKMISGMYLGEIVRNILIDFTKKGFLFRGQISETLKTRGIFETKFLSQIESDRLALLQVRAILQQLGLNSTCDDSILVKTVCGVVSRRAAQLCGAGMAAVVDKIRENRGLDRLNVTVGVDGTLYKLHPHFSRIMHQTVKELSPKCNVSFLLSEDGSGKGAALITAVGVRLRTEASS

ANXA2 = biological target: T10, ANXA2 (human, UniProt P07355 2-339); test: Y2H; INT ID 426
T10 construct: also called cbe_4267867
T10 sequence (P07355 2-339 limits assumed): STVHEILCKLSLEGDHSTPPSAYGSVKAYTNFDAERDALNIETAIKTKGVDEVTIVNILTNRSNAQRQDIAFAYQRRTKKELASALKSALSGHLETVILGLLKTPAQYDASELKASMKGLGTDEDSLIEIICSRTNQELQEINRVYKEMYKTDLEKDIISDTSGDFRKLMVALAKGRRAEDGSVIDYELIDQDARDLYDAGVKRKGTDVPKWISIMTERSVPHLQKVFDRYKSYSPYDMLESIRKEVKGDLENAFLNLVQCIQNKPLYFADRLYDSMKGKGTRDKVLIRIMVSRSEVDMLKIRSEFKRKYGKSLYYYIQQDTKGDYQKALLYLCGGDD

T8 sequence (O14980 whole entry): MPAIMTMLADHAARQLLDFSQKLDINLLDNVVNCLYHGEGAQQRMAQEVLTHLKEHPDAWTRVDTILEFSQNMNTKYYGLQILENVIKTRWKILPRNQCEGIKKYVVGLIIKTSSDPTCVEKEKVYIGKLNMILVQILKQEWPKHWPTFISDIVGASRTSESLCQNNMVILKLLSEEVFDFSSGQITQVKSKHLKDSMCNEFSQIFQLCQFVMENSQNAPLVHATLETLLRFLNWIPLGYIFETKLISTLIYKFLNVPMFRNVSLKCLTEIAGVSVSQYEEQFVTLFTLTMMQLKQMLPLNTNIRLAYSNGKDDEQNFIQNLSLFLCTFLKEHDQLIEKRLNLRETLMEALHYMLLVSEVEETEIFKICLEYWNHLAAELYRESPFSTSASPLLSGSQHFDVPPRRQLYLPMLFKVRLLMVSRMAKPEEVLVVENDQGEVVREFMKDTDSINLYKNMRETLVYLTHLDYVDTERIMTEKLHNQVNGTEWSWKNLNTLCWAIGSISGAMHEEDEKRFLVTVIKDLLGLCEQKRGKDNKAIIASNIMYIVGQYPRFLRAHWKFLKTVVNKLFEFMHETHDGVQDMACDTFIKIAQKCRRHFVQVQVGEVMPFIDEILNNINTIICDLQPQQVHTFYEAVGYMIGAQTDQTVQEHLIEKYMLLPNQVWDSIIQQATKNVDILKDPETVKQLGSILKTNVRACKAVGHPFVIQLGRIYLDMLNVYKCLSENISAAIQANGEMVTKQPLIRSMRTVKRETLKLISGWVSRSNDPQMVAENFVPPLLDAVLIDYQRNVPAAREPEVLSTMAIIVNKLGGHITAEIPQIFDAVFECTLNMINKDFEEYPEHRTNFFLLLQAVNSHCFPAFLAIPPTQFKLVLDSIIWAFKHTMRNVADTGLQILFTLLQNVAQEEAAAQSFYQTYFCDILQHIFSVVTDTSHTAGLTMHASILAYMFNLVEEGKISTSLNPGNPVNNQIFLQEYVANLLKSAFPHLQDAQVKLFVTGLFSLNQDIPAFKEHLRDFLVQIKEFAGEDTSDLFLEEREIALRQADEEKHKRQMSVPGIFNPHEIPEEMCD
T2 sequence (Q86UE8 whole entry, the tested form may be a part): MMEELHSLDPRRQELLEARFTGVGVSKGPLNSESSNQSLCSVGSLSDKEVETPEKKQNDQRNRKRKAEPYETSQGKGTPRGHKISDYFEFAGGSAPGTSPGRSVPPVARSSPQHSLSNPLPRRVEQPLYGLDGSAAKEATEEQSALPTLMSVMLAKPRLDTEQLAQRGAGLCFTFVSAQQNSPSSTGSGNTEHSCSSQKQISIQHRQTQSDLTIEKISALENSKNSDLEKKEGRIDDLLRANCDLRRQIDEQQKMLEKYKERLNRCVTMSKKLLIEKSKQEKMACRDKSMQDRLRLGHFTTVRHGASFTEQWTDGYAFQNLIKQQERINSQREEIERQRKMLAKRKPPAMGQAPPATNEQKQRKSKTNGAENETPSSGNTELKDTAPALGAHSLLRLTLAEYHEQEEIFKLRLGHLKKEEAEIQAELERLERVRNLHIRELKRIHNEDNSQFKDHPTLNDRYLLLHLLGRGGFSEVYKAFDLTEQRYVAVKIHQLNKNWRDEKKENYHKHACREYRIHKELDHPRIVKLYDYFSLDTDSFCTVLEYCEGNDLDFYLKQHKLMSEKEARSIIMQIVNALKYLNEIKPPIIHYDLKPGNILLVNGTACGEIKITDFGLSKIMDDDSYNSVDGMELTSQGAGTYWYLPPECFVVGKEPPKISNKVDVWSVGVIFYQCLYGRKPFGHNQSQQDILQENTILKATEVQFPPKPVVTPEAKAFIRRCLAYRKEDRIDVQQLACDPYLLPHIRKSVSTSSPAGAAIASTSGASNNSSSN
T5 sequence (Q96CW1 whole entry, one chain of several): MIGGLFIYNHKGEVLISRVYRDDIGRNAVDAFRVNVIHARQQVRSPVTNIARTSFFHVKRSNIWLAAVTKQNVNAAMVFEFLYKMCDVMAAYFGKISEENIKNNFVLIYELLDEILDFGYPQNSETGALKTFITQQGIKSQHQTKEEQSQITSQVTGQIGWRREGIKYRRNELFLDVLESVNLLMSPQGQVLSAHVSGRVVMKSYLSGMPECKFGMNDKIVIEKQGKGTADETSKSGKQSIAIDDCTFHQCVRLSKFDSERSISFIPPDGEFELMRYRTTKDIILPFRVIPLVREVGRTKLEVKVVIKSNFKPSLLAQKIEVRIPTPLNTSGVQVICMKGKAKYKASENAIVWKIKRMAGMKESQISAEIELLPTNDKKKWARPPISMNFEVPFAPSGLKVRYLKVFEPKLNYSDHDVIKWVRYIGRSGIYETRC

B1: binds (NDUFAB1); binds (TLK2).

B2: TRAF interacting protein (other)
chain: MPIRALCTICSDFFDHSRDVAAIHCGHTFHLQCLIQSFETAPSRTCPQCRIQVGKRTIINKLFFDLAQEEENVLDREFLKNELDNVRAQLSQKDKEKRDSQVIIDTLRDTLEERNATVVSLQQALGKAEMLCSTLKKQMKYLEQQQDETKQAQEEAGRLRSKMKTMEQIELLLQSQLPEVEEMIRDMGVGQSAVEQLAVYCVSLKKEYENLKEARKASGEVADKLRKDLFSSRSKLQTVYSELDQAKLELKSAQKDLQSADKEIMSLKKKLTMLQETLNLPPVASETVDRLVLESPAPVEVNLKLRRPSFRDDIDLNATFDVDTPPARPSSSQHGYYEKLCLEKSHSPIQDVPKKICKGPRKESQLSLGGQSCAGEPDEELVGAFPIFVRNAILGQKQPKRPRSESSCSKDVVRTGFDGLGGRTKFIQPTDTVMIRPLPVKPKTKVKQRVRVKTVPSLFQAKLDTFLWS
notes: also called TRIP; cbe_3340492
B2: binds [1].

B3: TDE1 (other)
chain: MGAVLGVFSLASWVPCLCSGASCLLCSCCPNSKNSTVTRLIYAFILLLSTVVSYIMQRKEMETYLKKIPGFCEGGFKIHEADINADKDCDVLVGYKAVYRISFAMAIFFFVFSLLMFKVKTSKDLRAAVHNGFWFFKIAALIGIMVGSFYIPGGYFSSVWFVVGMIGAALFILIQLVLLVDFAHSWNESWVNRMEEGNPRLWYAALLSFTSAFYILSIICVGLLYTYYTKPDGCTENKFFISINLILCVVASIISIHPKIQEHQPRSGLLQSSLITLYTMYLTWSAMSNEPDRSCNPNLMSFITRITAPTLAPGNSTAVVPTPTPPSKSGSLLDSDNFIGLFVFVLCLLYSSIRTSTNSQVDKLTLSGSDSVILGDTTTSGASDEEDGQPRRAVDNEKEGVQYSYSLFHLMLCLASLYIMMTLTSWYSPDAKFQSMTSKWPAVWVKISSSWVCLLLYVWTLVAPLVLTSRDFS
notes: also called cbe_3926508
B3: binds [2].

B4: Human Papillomavirus 1a E7 (other)
chain: MVGEMPALKDLVLQLEPSVLDLDLYCYEEVPPDDIEEELVSPQQPYAVVASCAYCEKLVRLTVLADHSAIRQLEELLLRSLNIVCPLCTLQRQ
notes: also called HPV 1a E7; cbe_251925
B4: binds [3]; binds (RBP4); binds [4]. B4: binds [5]; binds [6].

B5: hypothetical protein FLJ13236 (other)
chain: MAKGLLVTYALWAVGGPAGLHHLYLGRDSHALLWMLTLGGGGLGWLWEFWKLPSFVAQANRAQGQRQSPRGVTPPLSPIRFAAQVIVGIYFGLVALISLSSMVNFYIVALPLAVGLGVLLVAAVGNQTSDFKNTLGSAFLTSPIFYGRPIAILPISVAASITAQRHRRYKALVASEPLSVRLYRLGLAYLAFTGPLAYSALCNTAATLSYVAETFGSFLNWFSFFPLLGRLMEFVLLLPYRIWRLLMGETGFNSSCFQEWAKLYEFVHSFQDEKRQLAYQVLGLSEGATNEEIHRSYQELVKVWHPDHNLDQTEEAQRHFLEIQAAYEVLSQPRKPWGSRR
notes: also called cbe_71919
B5: binds [7].

B6: interferon regulatory factor 1 (other)
chain: MPITRMRMRPWLEMQINSNQIPGLIWINKEEMIFQIPWKHAAKHGWDINKDACLFRSWAIHTGRYKAGEKEPDPKTWKANFRCAMNSLPDIEEVKDQSRNKGSSAVRVYRMLPPLTKNQRKERKSKSSRDAKSKAKRKSCGDSSPDTFSDGLSSSTLPDDHSSYTVPGYMQDLEVEQALTPALSPCAVSSTLPDWHIPVEVVPDSTSDLYNFQVSPMPSTSEATTDEDEEGKLPEDIMKLLEQSEWQPTNVDGKGYLLNEPGVQPTSVYGDFSCKEEPEIDSPGGDIGLSLQRVFTDLKNMDATWLDSLLTPVRLPSIQAIPCAP
notes: also called IRF1; cbe_3001381
B6: binds [8].

B7: Human Papillomavirus 1a E6 (other)
chain: MATPIRTVRQLSESLCIPYIDVLLPCNFCNYFLSNAEKLLFDHFDLHLVWRDNLVFGCCQGCARTVSLLEFVLYYQESYEVPEIEEILDRPLLQIELRCVTCIKKLSVAEKLEVVSNGERVHRVRNRLKAKCSLCRLYAI
notes: also called HPV 1a E6; cbe_251919
B7: binds [9]; binds (hexokinase 1); binds (ANXA2).
